# In patent US11262348B2, “Cell-based assays for detection of antibodies or other factors that neutralize uptake of lysosomal enzymes” (BIOMARIN PHARMACEUTICAL INC., priority 2015, dated 2022):
# Like-named read-outs stand apart in the source and are kept apart here. Marks after values point to notes of the source that are not given here.
# Assays:
# [1] = Efficacy in clinical study: 6MWT distance and urine keratan sulfate (uKS); type: in vivo, human; settings: 24-week treatment period, QOW and QW
# Method: The primary efficacy measure in the clinical study was the distance walked in a 6MWT, which provides a measure of endurance. Keratan sulfate, an rhGALNS substrate, was also measured in individuals' urine (uKS) to track the pharmacodynamic effect of treatment with elosulfase alfa. NAb titers detected with the functional NAb assay were plotted against the change from baseline to week 24 in 6MWT distance, and the percentage change in uKS from baseline. No association was observed between NAb titer and 6MWT (FIG. 11A) or NAb titer and uKS (FIG. 11B) in individuals dosed weekly or every 2 weeks.
# [2] = cited from earlier work; for proportion of patients with NAb positivity: long-term extension study
# Jurkat cells [3] = assay: Cell-based flow cytometry assay of Alexa488-rhGALNS uptake (screening assay, % SI); parameters: species or system human; settings: for NHPS (% SI): no AbPC; for MFI: Alexa488-rhGALNS 0.4 μg/mL, 20% pooled human serum
# Method: Cell uptake of rhGALNS is measured using flow cytometry to determine the amount of fluorophore-conjugated rhGALNS taken up by Jurkat cells. Jurkat cells are a non-adherent human T cell line that express CI-MPR, which binds and targets rhGALNS to the lysosome. rhGALNS neutralizing antibodies (NAb) are detected in samples by a decrease in fluorophore-conjugated rhGALNS uptake (calculated as % inhibition) that exceeds the screening cut point (SCP).
# For a 1:1 dilution, 60 μL per well of controls were added in duplicate or in quadruplicate for 2 sets into the appropriate wells. Similarly, for a 1:1 dilution of sample, 60 μL per well of patient screening samples were added into the appropriate wells. For a 1:1 dilution for the confirmation assay, 60 μL per well of patient confirmation samples were added in duplicate into the corresponding wells. The plate was covered, wrapped in foil and allowed to incubate overnight for 14 to 20 hours at 2-8° C.
# Assay: Prior to the sample incubation step, the cell plates were removed from the CO2 incubator and observed to ensure the cells were healthy and viable. […] After the incubation was completed, the cells were washed in PBS by centrifuging the plate for 6 min at 310×g in a tabletop centrifuge at 14 to 18° C., repeated two to five times as appropriate. After the last wash, the plate was removed from the centrifuge, the cell pellet resuspended in 100 μL viability stain (red fluorescent reactive dye 1:1000 dilution) and tested for viability. Once viability testing was complete, the cells were centrifuged 6 min at 310×g in a tabletop centrifuge at 14 to 18° C.
# Percent Signal Inhibition (% SI) is calculated as [% SI=1—mean median fluorescence intensity (MFI) of sample/mean MFI of control×100]. Confirmatory assay data were analyzed as recovery ratio, defined as mean confirmatory assay MFI of sample/mean screening assay MFI of sample. The titer was calculated as the interpolated dilution factor at which the sample crossed the titer cut point determined by linear regression analysis (Microsoft Excel).
# [4] = NAb and TAb titers and positivity in individuals treated with elosulfase alfa (clinical study); type: in vivo, human
# Method: Samples from a 24 week study of rhGALNS (elosulfase alfa) treatment were assessed for NAb at baseline and weeks 2, 4, 8, 12, 16, 20 and 24. rhGALNS was infused at 2.0 mg/kg body weight in two dosing cohorts, weekly and every other week (QOW). Positive samples (FIG. 2A) show comparatively low NAb titers [wk 24 mean 52 (range 0 to 1,098) in the weekly group and 130 (range 0 to 1,659) in the QOW group] relative to anti-rhGALNS total antibody (TAb) titers [wk 24 mean 167,737 (range 0 to 1.77×10^6) in the weekly group and 190,901 (range 810 to 1.77×10^6) in the QOW group] (FIG. 2B).
# NAb titers and clinical outcomes To compare the functional NAb assay with the previously reported ELISA-based CI-M6PR binding assay for detecting NAb in elosulfase alfa-treated individuals with Morquio A syndrome [Schweighardt et al., supra], serum samples from the clinical trial were reanalyzed with the cell-based assay. Sufficient serum-sample volumes were available for the majority (842/847 [99%]) of serum sample collection time points to obtain confirmed positive/negative results. The overall concordance was high (89%) between NAb positivity in the receptor binding assay and the cell-based assay. Furthermore, the concordance was consistent over the 24-week treatment period (FIG. 9A).
# TAb titers detected using the CI-M6PR binding assay reported previously [Schweighardt et al., supra] were compared to the time course for NAb titer development detected with the functional NAb assay (FIG. 9B). Titers of both TAbs and NAbs increased rapidly during the first 8 weeks of treatment then plateaued from week 8 to week 24 in both the QOW and QW treatment groups (FIG. 9B). Although the frequency of drug administration had minimal effect on TAb and NAb titers at week 24, the QW treatment group appeared to have higher titers of both TAbs and NAbs in the initial 4 weeks of treatment. Subjects in both the QOW and QW treatment groups developed different NAb titer courses over 24 weeks.
# [5] = Elosulfase alfa pharmacokinetics in individuals with Morquio A syndrome; type: in vivo, human; settings: QOW and QW cohorts, week 22 PK vs week 24 NAb titer
# Source text: Effect of NAb Titer on Elosulfase Alfa Pharmacokinetics: In order to further explore the association between NAbs and pharmacokinetics, NAb titers from the functional NAb assay were compared to total clearance (CL) of drug after intravenous administration and elimination half-life (t1/2). Increased NAb titers were associated with prolonged t1/2 in both the QOW and QW cohorts (FIG. 12A).
# Antibodies that neutralize elosulfase alfa uptake through CI-M6PR may not exist at concentrations sufficient to prevent effective amounts of elosulfase alfa from reaching target tissues. Although NAbs that block uptake of drug are measureable in our cell-based NAb assay, this amount of NAbs may be insignificant relative to elosulfase alfa dose. This cell-based assay was designed to detect the lowest possible NAb concentrations, ideally prior to observed clinical effects. […] 53 (2014) 1137-1147]. […] 53 (2014) 1137-1147]. Although further investigation is needed, one aspect to the lack of neutralizing antibody effect on efficacy may be that rapid clearance of drug from plasma diminishes the rate of neutralizing antibody-elosulfase alfa complex formation. […] Scler. 15 (2009) 977-983].
# [6] = after 22 weeks, cited from earlier work; for half-life (t1/2): plasma
# Jurkat cells [7] = assay: Confocal imaging of Alexa488-rhGALNS internalization and trafficking to lysosomes; type: cell-based, human; settings: LysoTracker Red
# Method: Confocal Imaging: Internalization of Alexa488-rhGALNS and trafficking to lysosomes was confirmed by confocal microscopy by incubating cells from the functional NAb assay described in section 2.3 with 50 nM LysoTracker Red (Molecular Probes) at 37° C. for 1 h. Cells were then washed with serum-free RPMI-1640 and mounted with Prolong Gold Antifade Mountant with DAPI (Molecular Probes), sealed, and visualized using a Leica SP8 confocal microscope (Leica Microsystems). Confocal Z-stacks were acquired using a 63× Plan-Apo objective with 4× zoom and LASX software (Leica Microsystems). Z-stacks were rendered in 3-D and exported using Volocity software version 6.3 (PerkinElmer).
molecule,measurement,setting,value
"Recombinant human N-acetylgalactosamine-6-sulfatase (protein, UniProt P34059 27-522, looked up, enzyme replacement therapy (elosulfase alfa) for the treatment of MPS IVA) N-acetylgalactosamine-6-sulfat …: APQPPNILLLLMDDMGWGDLGVYGEPSRETPNLDRMAAEGLLFPNFYSANPLCSPSRAALLTGRLPIRNGFYTTNAHARNAYTPQEIVGGIPDSEQLLPELLKKAGYVSKIVGKWHLGHRPQFHPLKHGFDEWFGSPNCHFGPYDNKARPNIPVYRDWEMVGRYYEEFPINLKTGEANLTQIYLQEALDFIKRQARHHPFFLYWAVDATHAPVYASKPFLGTSQRGRYGDAVREIDDSIGKILELLQDLHVADNTFVFFTSDNGAALISAPEQGGSNGPFLCGKQTTFEGGMREPALAWWPGHVTAGQVSHQLGSIMDLFTTSLALAGLTPPSDRAIDGLNLLPTLLQGRLMDRPIFYYRGDTLMAATLGQHKAHFWTWTNSWENFRQGIDFCPGQNVSGVTTHNLEDHTKLPLIFHLGRDPGERFPLSFASAEYQEALSRITSVVQQHQEALVPAQPQLNVCNWAVMNWAPPGCEKLGKCLTPPESIPKKCLWSH","impact of NAb titers on efficacy (6MWT, uKS)",[1],no detrimental impact
same,development of drug-specific total antibodies (TAb),"[2]; clinical study, treated individuals",all individuals
same,proportion of patients with NAb positivity,[2]; week 36,85.9%
same,proportion of patients with NAb positivity,[2]; week 120,66.0%
same,concentration of unlabeled rhGALNS that reduced Alexa488-rhGALNS uptake,Jurkat cells [3]; NPS without AbPC,≥ 0.22 µg/mL
same,rhGALNS concentration the assay can tolerate before interference with Alexa488-rhGALNS uptake,Jurkat cells [3]; drug tolerance,up to 0.22 μg/mL
same,highest neat concentration of rhGALNS at which the low and high PC-spiked samples screened positive,Jurkat cells [3]; highest concentration tested,2.00 µg/mL
same,NHPS (% SI),Jurkat cells [3]; unlabeled elosulfase alfa 0.0027 μg/mL,−10.84 % SI
same,NHPS (% SI),Jurkat cells [3]; unlabeled elosulfase alfa 0.008 μg/mL,3.79 % SI
same,NHPS (% SI),Jurkat cells [3]; unlabeled elosulfase alfa 0.025 μg/mL,−7.21 % SI
same,NHPS (% SI),Jurkat cells [3]; unlabeled elosulfase alfa 0.074 μg/mL,−5.58 % SI
same,NHPS (% SI),Jurkat cells [3]; unlabeled elosulfase alfa 0.22 μg/mL,8.00 % SI
same,NHPS (% SI),Jurkat cells [3]; unlabeled elosulfase alfa 0.67 μg/mL,26.94* % SI
same,NHPS (% SI),Jurkat cells [3]; unlabeled elosulfase alfa 2.00 μg/mL,55.42* % SI
same,mean NAb titer,[4]; at 12 weeks,118±271
same,"NAb titer, mean","[4]; wk 24, 2.0 mg/kg QOW group",130
same,"anti-rhGALNS total antibody (TAb) titer, mean","[4]; wk 24, 2.0 mg/kg QOW group","190,901"
same,"NAb titer, mean","[4]; wk 24, 2.0 mg/kg weekly group",52
same,"anti-rhGALNS total antibody (TAb) titer, mean","[4]; wk 24, 2.0 mg/kg weekly group","167,737"
same,CL with increased NAb titers (trend),[5],decreased
same,t1/2 with increased NAb titers,[5],prolonged
same,half-life (t1/2),[6]; 2.0 mg/kg QOW,19 min
same,plasma Cmax,[6]; 2.0 mg/kg QOW,2600 ng/mL
same,half-life (t1/2),[6]; 2.0 mg/kg QW,36 min
same,plasma Cmax,[6]; 2.0 mg/kg QW,4000 ng/mL
"Alexa488-rhGALNS (conjugate, UniProt P34059 27-522, looked up, Alexa488 label) N-acetylgalactosamine-6-sulfat …: APQPPNILLLLMDDMGWGDLGVYGEPSRETPNLDRMAAEGLLFPNFYSANPLCSPSRAALLTGRLPIRNGFYTTNAHARNAYTPQEIVGGIPDSEQLLPELLKKAGYVSKIVGKWHLGHRPQFHPLKHGFDEWFGSPNCHFGPYDNKARPNIPVYRDWEMVGRYYEEFPINLKTGEANLTQIYLQEALDFIKRQARHHPFFLYWAVDATHAPVYASKPFLGTSQRGRYGDAVREIDDSIGKILELLQDLHVADNTFVFFTSDNGAALISAPEQGGSNGPFLCGKQTTFEGGMREPALAWWPGHVTAGQVSHQLGSIMDLFTTSLALAGLTPPSDRAIDGLNLLPTLLQGRLMDRPIFYYRGDTLMAATLGQHKAHFWTWTNSWENFRQGIDFCPGQNVSGVTTHNLEDHTKLPLIFHLGRDPGERFPLSFASAEYQEALSRITSVVQQHQEALVPAQPQLNVCNWAVMNWAPPGCEKLGKCLTPPESIPKKCLWSH",localization by confocal imaging,Jurkat cells [7],co-localized with lysosomes
same,MFI,Jurkat cells [3]; cells incubated at 4° C.,92.9±1.50
same,MFI,Jurkat cells [3]; cells incubated at 37° C.,4425±98.6
same,Kuptake,"Jurkat cells [3]; Hanes-Woolf plot linear regression, dose-response 0 to 363.6 nM",46.3 nM
same,Kuptake,"Jurkat cells [3]; Jurkat T cells, 4 hours incubation at 37° C.",approximately 5 μg/mL
